# Patent publication US20260248897
# How the values were obtained:
# [1] = system: RBD of SARS-CoV-2 Delta strain B.1.617.2, on infectious virus
# [2] = system: RBD of SARS-CoV-2 Delta strain
# [3] = system: RBD of SARS-CoV-2 Omicron strain B.1.1.529, BA1, on infectious virus
# [4] = system: RBD of SARS-CoV-2 Omicron strain
substance,measurement,setting,value
gene recombinant of human PDI (protein disulfide isomerase),antiviral activity (viral genome amount in supernatant of infected airway organoids),[1],PDI showed the high antiviral activity against both the Delta strain and the Omicron strain.
same,"disulfide bond cleavage activity (remaining rate of native RBD; maleimide-PEG 2k, SDS-PAGE)",[2],PDI showed an activity to cleave disulfide bonds in both the RBD of the Delta strain and the RBD of the Omicron strain.
same,antiviral activity (viral genome amount in supernatant of infected airway organoids),[3],PDI showed the high antiviral activity against both the Delta strain and the Omicron strain.
same,"disulfide bond cleavage activity (remaining rate of native RBD; maleimide-PEG 2k, SDS-PAGE)",[4],PDI showed an activity to cleave disulfide bonds in both the RBD of the Delta strain and the RBD of the Omicron strain. The disulfide bond cleavage activity was particularly high in the RBD of the Omicron strain.
